The MegaScale stability set (Tsuboyama et al. 2023)

B1: HEEH_KT_rd6_3546 (parent)
chain: SEEDKEREHWERLNRDFELRVLDTTFIAHHAEEVIKLLRWLEK

Variants of: B1
Experiment: folding stability dG (cDNA display proteolysis); higher = more stable
Settings: PBS, room temperature

Folding stability dG [kcal/mol] of substitutions, site by site:
S1: L 1.35 | M 0.916 | N 1.3 | P 1.43 | Q 1.5 | R 1.36 | T 1.4 | V 1.31 | W 1.16 | Y 1.27
E2: A 1.48 | D 1.44 | F 1.36 | G 1.57 | H 1.42 | I 1.6 | K 1.45 | L 1.53 | M 1.43 | N 1.38 | P 1.34 | Q 1.62 | R 1.61 | S 1.31 | T 1.48 | V 1.45 | W 1.57 | Y 1.45
E3: A 1.22 | D 1.49 | F 1.63 | G 1.28 | H 1.36 | I 1.56 | K 1.4 | L 1.61 | M 1.33 | N 1.51 | P 1.3 | Q 1.41 | R 1.48 | S 1.45 | T 1.19 | V 1.29 | W 1.65 | Y 1.39
D4: A 1.38 | C 2.16 | E 1.56 | F 1.46 | G 1.28 | H 1.41 | I 1.4 | K 1.41 | L 1.53 | M 1.42 | N 1.44 | P 1.38 | Q 1.42 | R 1.39 | S 1.29 | T 1.42 | V 1.3 | W 1.45 | Y 1.37
K5: A 1.39 | D 1.41 | E 1.39 | F 1.44 | G 1.27 | H 1.4 | I 1.17 | L 1.15 | M 1.21 | N 1.29 | P 1.28 | Q 1.11 | R 1.23 | S 1.08 | T 1.21 | V 1.46 | W 1.67 | Y 1.35
E6: A 1.49 | C 1.7 | D 0.956 | F 1.73 | G 1.35 | H 1.43 | I 1.62 | K 1.18 | L 1.55 | M 1.54 | N 1.38 | P 1.19 | Q 1.48 | R 1.38 | S 1.47 | T 1.56 | V 1.56 | W 1.8 | Y 1.55
R7: A 1.53 | D 1.25 | E 1.3 | F 1.13 | G 1.47 | H 1.18 | I 1.36 | K 1.19 | L 1.26 | M 1.46 | N 1.26 | P 1.19 | Q 1.34 | S 1.3 | T 1.26 | V 1.28 | W 1.39 | Y 1.21
E8: A 1.4 | D 1.17 | F 1.96 | G 1.5 | H 1.15 | I 1.43 | K 1.32 | L 1.47 | M 1.73 | N 1.48 | P 1.09 | Q 1.34 | R 1.34 | S 1.86 | T 1.58 | V 1.26 | W 2.04 | Y 1.28
H9: A 1.42 | C 2.53 | D 1.2 | E 1.2 | F 1.91 | G 1.42 | I 1.86 | K 1.34 | L 1.53 | M 1.64 | N 1.23 | P 1.1 | Q 1.35 | R 1.31 | S 1.38 | T 1.5 | V 1.47 | W 2.17 | Y 1.65
W10: A 1.03 | C 1.79 | D 1.25 | E 1.05 | F 1.32 | G 1.12 | H 1.09 | I 1.2 | K 1.22 | L 1.36
